Consider 31 substances from patent US20190338048A1.

As usually defined, the Kd is the constant that tells how readily two partners part at equilibrium.

The target in test [1] is Recombinant human IL-17A (human) (UniProt Q16552). Description: SPR. (Surface plasmon resonance follows binding to a sensor surface in real time, without labels.)
For test [2] the target is unchanged. Description: SPR. The source holds these as a separate data set.
In test [3] the target is CAT-2200 heavy chain Fab construct (H1) S186R. Description: LCCA, SPR tag read-out.
The target of test [4] is CAT-2200 heavy chain Fab construct (H1) Q39K. Description: LCCA, SPR tag read-out.
Test [5] has as its target Recombinant human IL-17A (human) (UniProt Q16552). Description: SPR. This is another data set of the same source.
Test [6] concerns the target Pertuzumab kappa light chain P44F_S131R_V133G_S176R. The test is described as follows: LCCA, SPR tag read-out.
For test [7], the target named is Pertuzumab kappa light chain S131K_L135K. Description: LCCA, SPR tag read-out.
Test [8] addresses CAT-2200 lambda light chain K129T_V133D. Description: LCCA, SPR.
In test [9] the target is Pertuzumab kappa light chain S131K_V133G_S176R_T178A. The test is described as follows: LCCA, SPR.
In test [10] the target is Pertuzumab kappa light chain S131R_V133G_S176R_T178A. The test is described as follows: LCCA, SPR.
In test [11] the target is CAT-2200 lambda light chain K129T_V133D. Description: LCCA, SPR. The source holds these as a separate data set.
The target of test [12] is Pertuzumab kappa light chain S131R_V133S_L135K. Description: LCCA, SPR.
For test [13], the target named is Pertuzumab kappa light chain V133A_S176K_T178A (L2), HA-tagged. Description: LCCA, SPR of light-chain tags.
Test [14] has as its target Pertuzumab kappa light chain V133G_S176R_T178A (L2), HA-tagged. Description: LCCA, SPR of light-chain tags.
The target of test [15] is Pertuzumab kappa light chain V133A_S176K_T178A (L2), HA-tagged. Description: LCCA, SPR of light-chain tags. The source holds these as a separate data set.
For test [16], the target named is Pertuzumab kappa light chain V133G_S176R_T178A (L2), HA-tagged. Description: LCCA, SPR of light-chain tags. This is another data set of the same source.
In test [17] the target is Pertuzumab kappa light chain Q124E_V133G_S176D_T178D. Description: LCCA.
The target of test [18] is Pertuzumab kappa light chain V133G_S176D_T178E. The test is described as follows: LCCA, SPR.
Test [19] has as its target Pertuzumab kappa light chain V133G_S176D_T180E. Description: LCCA, SPR.
For test [20], the target named is CAT-2200 lambda light chain E124Q_T131R. The test is described as follows: LCCA, SPR.
For test [21], the target named is Pertuzumab kappa light chain V133G_S176D_T178E. The test is described as follows: LCCA, SPR. This is another data set of the same source.
Test [22] addresses Pertuzumab kappa light chain V133G_S176D_T180E. Description: LCCA, SPR. This is another data set of the same source.
In test [23] the target is CAT-2200 lambda light chain E124Q_T131K. The test is described as follows: LCCA, SPR.
Test [24] has as its target Pertuzumab kappa light chain V133G_L135W_S176D_T180E. The test is described as follows: LCCA, SPR tag read-out.
Test [25] shares this target. The test is described as follows: LCCA, SPR tag read-out. This is another data set of the same source.
The target of test [26] is CAT-2200 lambda light chain S122D_K129T_S180E. The test is described as follows: LCCA.
Test [27] has as its target Pertuzumab kappa light chain S121K_Q124R_Q160K_T178R. Description: LCCA.
The target in test [28] is Pertuzumab kappa light chain S121K_Q124R_T178R. The test is described as follows: LCCA.
Test [29] has as its target Pertuzumab kappa light chain Q124R_Q160R_S176A_T178R. The test is described as follows: LCCA, SPR.
The target of test [30] is Pertuzumab kappa light chain Q124R_S176A_T178R. The test is described as follows: LCCA, SPR.
In test [31] the target is Pertuzumab kappa light chain Q124K_L135A_T178R. The test is described as follows: LCCA.
Test [32] addresses Pertuzumab kappa light chain Q124R_L135A_Q160K_T178R. The test is described as follows: LCCA.
Test [33] concerns the target Pertuzumab kappa light chain S121K_Q124E_V133D. The test is described as follows: LCCA, SPR tag read-out.
The target in test [34] is Pertuzumab kappa light chain Q124E_V133D_L135A. The test is described as follows: LCCA, SPR tag read-out.
The target of test [35] is CAT-2200 lambda light chain T116F_S176F (L1), N-terminal FLAG tag. The test is described as follows: LCCA, SPR of light chain tags.
The target in test [36] is Pertuzumab kappa light chain V133A (L2), N-terminal HA tag. Description: LCCA, SPR of light chain tags.
Test [37] addresses Pertuzumab light chain (kappa) V133G_S176D_T178E, HA-tagged. Description: LCCA.
Test [38] addresses Pertuzumab light chain (kappa) V133G_S176D_T180E, HA-tagged. Description: LCCA.
Test [39] deals with Pertuzumab light chain (kappa) V133G_S176D_T178E, HA-tagged. The test is described as follows: LCCA. The source holds these as a separate data set.
In test [40] the target is Pertuzumab light chain (kappa) V133G_S176D_T180E, HA-tagged. The test is described as follows: LCCA. This is another data set of the same source.

Where two headings read alike, the source gives them in different places.

Chain of Recombinant human IL-17A (human) (Q16552 20-155 limits assumed): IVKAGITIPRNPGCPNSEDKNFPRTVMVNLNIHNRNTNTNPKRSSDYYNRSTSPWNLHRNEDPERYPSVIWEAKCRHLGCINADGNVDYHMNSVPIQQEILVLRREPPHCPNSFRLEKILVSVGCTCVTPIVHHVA

In the case of “CAT-2200 Fab heterodimer (H1L1) with H1 S188K and L1 S176D_Y178E”, the Kd in test [1] came to 370 pM. Further, in test [2], the Change in KD of H1L1 Fab vs wild type is -0.13; the Change in KD of H1L1 Fab vs wild type, -(log(KD design)-log(KD wt)) was -0.13; the Kd is 370 pM.
On to “CAT-2200 Fab heterodimer (H1L1) with H1 S188K and L1 S176E_Y178E”, for which, in test [1], the Kd came to 360 pM. Besides, the Change in KD of H1L1 Fab vs wild type in [2] was -0.12.
The corresponding values for “CAT-2200 Fab heterodimer (H1L1) with H1 V177I_S188K and L1 V133I_S176D_Y178E” are 230 pM and 0.08.
“CAT-2200 lambda light chain construct (L1) K129T_S180E, FLAG-tagged”: the H1L1:H1L2 normalized median scalar value ln(r1/f1) in test [3] came to 1.94.
Consider “CAT-2200 lambda light chain construct (L1) Q38D, FLAG-tagged”, for which, in [4], the H1L1:H1L2 normalized median scalar value ln(r1/f1) amounted to 0.91.
With “CAT-2200 lambda light chain construct (L1) Q38E, FLAG-tagged”, in test [4], the H1L1:H1L2 normalized median scalar value ln(r1/f1) is 0.61.
For the substance “CAT-2200 wild type one-armed antibody (OAA), FLAG-tagged light chain”, the results for the Kd in [5] and in [2] were 366 pM and 375 pM, respectively.
Regarding “CAT-2200 wild type one-armed antibody (OAA), HA-tagged light chain”, the Kd in test [5] was found to be 350 pM; in test [2], 373 pM.
Regarding “CAT-2200 wild type one-armed antibody (OAA), no tags”, the Kd amounted to 287 pM in [5] and 282 pM in test [2].
Take “Pertuzumab Fab heavy chain L45P_L124E_K145T_Q179E”: in test [6], the H2L2:H2L1 median scalar value is 3.9 ln(ratio) and the H2L2:H2L1 normalized median ratio turned out to be 97%.
On to Pertuzumab Fab heavy chain L124E_K145T, for which the H2L2:H2L1 median scalar value in test [7] was 0.85 ln(ratio).
For the substance “Pertuzumab Fab heavy chain L124E_K145T_Q179E_S186I_S188W”, the H2L2:H2L1 normalized median ratio was 16% in test [8], 84% in test [9], 88% in [10] and 12% in test [11]. Besides, the H2L2:H2L1 normalized median scalar value ln(r1/f1) in [9] stood at 1.69; in test [10] it was 2.04.
For the substance “Pertuzumab Fab heavy chain L124E_K145T_Q179E_S188W”, the H2L2:H2L1 normalized median ratio in test [8] was found to be 9%; in test [9], 91%; in [10], 96%; in test [11] it was 4%. Further, the H2L2:H2L1 normalized median scalar value ln(r1/f1) in [9] was 2.31; in test [10], 3.12.
On to “Pertuzumab Fab heavy chain L124E_K145T_S186E”, for which the figures for the H2L2:H2L1 normalized median ratio in test [8] and in [12] were 20% and 80%, respectively. This substance displayed an H2L2:H2L1 normalized median scalar value ln(r1/f1) in test [12] of 1.38.
Consider “Pertuzumab Fab heavy chain L124E_S186I_S188W (H2)”, for which the H2L2:H2L1 normalized median scalar value ln(r1/f1) amounted to 0.65 in [13], 0.94 in [14], 1.03 in [15] and 1.19 in test [16].
For the substance Pertuzumab Fab heavy chain L124K_S188K, the H2L2:H2L1 median scalar value in [17] is -0.29 ln.
As for Pertuzumab Fab heavy chain L124R_S186K, the H2L2:H2L1 normalized median scalar value ln(r1/f1) in test [18] amounted to 1.22; in [19], 1.32; in test [21], 1.12; in [22], 1.47. In addition, the H2L2:H2L1 normalized median ratio in [20] worked out at 21%; in test [23], 25%. Moreover, the H2L2:H2L1 median scalar value in [24] and in [25] was 0 ln(ratio) in each case.
As to Pertuzumab Fab heavy chain L124R_S186R, the H2L2:H2L1 normalized median scalar value ln(r1/f1) came out at 1.18 in test [18], 1.47 in test [19], 1.04 in test [21] and 1.5 in [22]. Besides, the H2L2:H2L1 normalized median ratio in [23] was 26%. The H2L2:H2L1 median scalar value in [24] was 0.23 ln(ratio).
For the substance Pertuzumab Fab heavy chain L124R_S188K, the H2L2:H2L1 median scalar value in test [17] was determined as 0.54 ln.
Take “Pertuzumab Fab heavy chain L143E_K145T_K228D”: the H2L2:H2L1 normalized median ratio was 28% in test [26] and 72% in [28]. Also, the H2L2:H2L1 median scalar value in test [27] was -0.24 ln; in test [28], 2.19 ln.
Regarding “Pertuzumab Fab heavy chain L143E_K145T_Q179E_S186I_S188W”, the figures for the H2L2:H2L1 normalized median scalar value ln(r1/f1) in test [29] and in test [30] were 1.42 and 2.8, respectively.
“Pertuzumab Fab heavy chain L143E_K145T_Q179E_S188F_V190F”: the H2L2:H2L1 median scalar value in test [31] is -0.51 ln.
In the case of “Pertuzumab Fab heavy chain L143E_K145T_Q179E_S188W”, the H2L2:H2L1 normalized median ratio in test [8] stood at 15%; in test [29] it was 85%. Moreover, the H2L2:H2L1 normalized median scalar value ln(r1/f1) in test [29] amounted to 1.71; in test [30], 2.83.
In test [32], “Pertuzumab Fab heavy chain L143E_K145T_V190F” registered an H2L2:H2L1 median scalar value of -0.23 ln.
For “Pertuzumab Fab heavy chain L143I_S186K_K228D”, the H2L2:H2L1 median scalar value in test [33] was -0.18 ln(ratio).
Consider “Pertuzumab Fab heavy chain L143I_S186K_V190F”, for which the H2L2:H2L1 median scalar value in [34] was -0.49 ln(ratio).
As for Pertuzumab Fab heavy chain L143R_V190F, in [34], the H2L2:H2L1 median scalar value was 1.25 ln(ratio).
With Pertuzumab Fab heavy chain S186K_K228D, the H2L2:H2L1 median scalar value in test [33] is -0.5 ln(ratio).
In the case of Pertuzumab Fab heavy chain S186K_V190F, in test [34], the H2L2:H2L1 median scalar value was -0.45 ln(ratio).
Take “Pertuzumab Fab heavy chain S188F (H2), ABD2-His6 tagged”: the H2L2:H2L1 normalized median ratio in test [35] came to 28%. Besides, in test [36], the H2L2:H2L1 normalized median ratio worked out at 72% and the H2L2:H2L1 normalized median scalar value ln(r1/f1) was found to be 0.93.
Take “Pertuzumab heavy chain Fab construct L124R_S186K”: the H2L2:H2L1 normalized median scalar value ln(r1/f1) in test [37] stood at 1.12; in test [38], 1.47; in test [39], 1.22; in test [40] it was 1.32.
